Source: US20060121042A1 (AstraZeneca / MedImmune, published 2006)
Numbering of substitutions follows the chain as printed.

Tests used:
[1] = biological target: T1, hEphA2 (human, UniProt P29317); assay: ELISA
T1 construct: also called human EphA2

[2] = biological target: mEph A2 (mouse, UniProt Q03145); assay: ELISA
[3] = biological target: T2, rrEphB1 (rat, UniProt P09759); assay: ELISA
T2 sequence (receptor, looked up): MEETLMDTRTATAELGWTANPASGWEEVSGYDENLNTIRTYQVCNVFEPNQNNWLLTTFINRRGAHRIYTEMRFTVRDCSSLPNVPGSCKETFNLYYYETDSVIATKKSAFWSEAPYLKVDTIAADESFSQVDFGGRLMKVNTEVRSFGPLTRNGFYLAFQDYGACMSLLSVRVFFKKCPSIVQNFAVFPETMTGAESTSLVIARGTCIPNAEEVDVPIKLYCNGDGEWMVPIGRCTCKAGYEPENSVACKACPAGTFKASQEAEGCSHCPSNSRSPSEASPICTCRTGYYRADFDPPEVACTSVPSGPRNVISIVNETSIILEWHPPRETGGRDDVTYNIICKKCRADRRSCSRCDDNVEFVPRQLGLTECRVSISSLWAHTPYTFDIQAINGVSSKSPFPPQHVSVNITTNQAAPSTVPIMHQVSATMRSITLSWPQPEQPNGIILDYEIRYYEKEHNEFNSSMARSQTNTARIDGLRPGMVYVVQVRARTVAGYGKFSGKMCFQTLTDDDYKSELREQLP

[4] = biological target: T3, rmEph B2 (mouse, UniProt P54763); assay: ELISA
T3 sequence (receptor, looked up): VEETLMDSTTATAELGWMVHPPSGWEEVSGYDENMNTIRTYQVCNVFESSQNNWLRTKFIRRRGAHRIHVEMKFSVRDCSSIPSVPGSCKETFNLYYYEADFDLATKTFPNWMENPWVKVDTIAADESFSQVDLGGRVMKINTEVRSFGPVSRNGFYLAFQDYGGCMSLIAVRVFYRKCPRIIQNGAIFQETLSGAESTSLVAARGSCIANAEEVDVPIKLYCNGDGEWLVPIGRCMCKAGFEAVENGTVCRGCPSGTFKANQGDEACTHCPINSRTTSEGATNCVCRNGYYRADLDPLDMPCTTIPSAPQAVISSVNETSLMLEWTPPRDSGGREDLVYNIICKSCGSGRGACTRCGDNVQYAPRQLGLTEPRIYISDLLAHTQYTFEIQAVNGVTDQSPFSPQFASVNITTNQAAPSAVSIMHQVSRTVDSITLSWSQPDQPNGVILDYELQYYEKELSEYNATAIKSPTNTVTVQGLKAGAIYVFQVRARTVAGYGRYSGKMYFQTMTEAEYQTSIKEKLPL

[5] = biological target: T4, rmEph B3 (mouse, UniProt P54754); assay: ELISA
T4 sequence (receptor, looked up): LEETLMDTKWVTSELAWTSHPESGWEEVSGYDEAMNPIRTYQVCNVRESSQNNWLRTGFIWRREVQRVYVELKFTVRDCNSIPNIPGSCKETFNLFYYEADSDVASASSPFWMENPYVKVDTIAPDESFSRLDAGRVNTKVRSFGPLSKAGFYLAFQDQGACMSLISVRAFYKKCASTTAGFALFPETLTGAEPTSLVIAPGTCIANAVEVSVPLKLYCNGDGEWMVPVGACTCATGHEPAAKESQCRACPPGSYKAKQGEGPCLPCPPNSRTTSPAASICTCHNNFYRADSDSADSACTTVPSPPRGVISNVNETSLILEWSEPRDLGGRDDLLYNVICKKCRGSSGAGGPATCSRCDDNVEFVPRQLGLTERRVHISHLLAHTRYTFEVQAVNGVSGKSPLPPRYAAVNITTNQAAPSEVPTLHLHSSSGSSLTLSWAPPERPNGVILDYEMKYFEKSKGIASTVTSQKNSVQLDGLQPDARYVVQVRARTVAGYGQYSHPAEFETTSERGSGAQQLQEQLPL

[6] = biological target: T5, r murine EphA3 (mouse, UniProt P29319); assay: activity ELISA, IgG on coated antigen
T5 construct: recombinant Fc fusion (R&D Systems); also called rmuEphA3-Fc; mEphA3
T5 sequence (receptor-Fc fusion, looked up): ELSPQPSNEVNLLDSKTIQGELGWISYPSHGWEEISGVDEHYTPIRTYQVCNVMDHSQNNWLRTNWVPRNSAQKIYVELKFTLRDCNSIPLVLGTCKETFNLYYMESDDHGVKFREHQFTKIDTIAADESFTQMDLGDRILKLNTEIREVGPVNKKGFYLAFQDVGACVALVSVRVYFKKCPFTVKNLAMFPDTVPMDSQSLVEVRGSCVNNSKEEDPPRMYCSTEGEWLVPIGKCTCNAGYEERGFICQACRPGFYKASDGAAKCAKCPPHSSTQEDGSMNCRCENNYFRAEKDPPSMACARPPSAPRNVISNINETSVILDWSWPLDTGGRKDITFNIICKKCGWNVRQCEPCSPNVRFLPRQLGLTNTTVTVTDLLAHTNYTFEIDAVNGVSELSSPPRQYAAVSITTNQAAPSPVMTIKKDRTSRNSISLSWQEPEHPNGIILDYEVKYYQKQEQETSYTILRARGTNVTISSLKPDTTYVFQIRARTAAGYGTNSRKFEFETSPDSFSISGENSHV
Experimental: (§1) Secondary screening of IgG constructs of affinity optimized combinatorial variants with additional EphA receptors: With purified IgG constructs of the nine combinatorial variants, additional secondary screening assays were performed using the Activity ELISA (see above) and recombinant EphA receptor proteins. More precisely, Nunc Maxisorp plates were coated with the following rEphA proteins: rhuEphAl-Fc; 0.5 μg/well, rmuEphA2-Fc; 0.5 μg/well, rmuEphA3-Fc: 0.1 μg/well, rmuEphA4-Fc; 0.1 μg/well, rratEphA5-Fc; 0.5 μg/well, rmuEphA6-Fc; 0.5 μg/well, rmuEphA7-Fc; 0.1 μg/well, rEphA8; 0.2 μg/well (all R&D Systems), rhuEphA2-Fc; 0.5 μg/well, and rhuEphA4-His; 0.1 μg/well (both produced at MedImmune, Inc.). Plates were blocked with 3% BSA+0.1% Tween20 for 2 h. […] Incubation with a goat anti-human kappa horseradish peroxydase (HRP) conjugate then followed. HRP activity was detected with TMB substrate and the reaction quenched with 0.2 M H₂SO₄. Plates were read at 450 nm. Data was analyzed by normalizing Fab concentrations to the corresponding activity data (see FIGS. 12A-12J and 14).

[7] = biological target: T6, r murine EphA4 (mouse, UniProt Q03137); assay: activity ELISA, IgG on coated antigen
T6 construct: recombinant Fc fusion (R&D Systems); also called rmuEphA4-Fc; mEphA4
Experimental: as §1

[8] = biological target: T7, r murine EphA7 (mouse, UniProt Q61772); assay: activity ELISA, IgG on coated antigen
T7 construct: recombinant Fc fusion (R&D Systems); also called rmuEphA7-Fc; mEphA7
T7 sequence (receptor-Fc fusion, looked up): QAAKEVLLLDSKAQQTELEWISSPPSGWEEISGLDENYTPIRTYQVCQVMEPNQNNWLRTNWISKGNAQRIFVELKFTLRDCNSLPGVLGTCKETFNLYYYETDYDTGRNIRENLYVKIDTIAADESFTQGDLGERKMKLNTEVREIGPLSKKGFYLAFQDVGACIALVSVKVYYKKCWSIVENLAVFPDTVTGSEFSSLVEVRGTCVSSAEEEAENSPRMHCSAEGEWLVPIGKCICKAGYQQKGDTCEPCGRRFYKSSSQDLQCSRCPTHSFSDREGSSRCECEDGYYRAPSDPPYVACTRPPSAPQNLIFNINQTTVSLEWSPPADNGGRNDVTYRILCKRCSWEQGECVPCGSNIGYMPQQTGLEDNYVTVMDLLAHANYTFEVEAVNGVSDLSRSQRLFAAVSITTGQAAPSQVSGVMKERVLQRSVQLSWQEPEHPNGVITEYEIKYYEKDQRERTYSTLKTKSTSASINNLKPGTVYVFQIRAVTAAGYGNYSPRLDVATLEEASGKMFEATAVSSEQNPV
Experimental: as §1

[9] = biological target: T8, Human EphA4-His fusion protein (human, UniProt P54764 20-547); assay: BIAcore, IgG immobilized on the sensor chip, EphA4-his as analyte
T8 construct: also called rhuEphA4-His; not shown: Histidine tag
Experimental: (§2) FIG. 15A-15B. […] Binding affinities were measured using the BIAcore assay. […] Variant kinetic measurements for human EphA4 and were obtained using BIAcore with immobilized variant antibodies and human EphA4-Fc and EphA4-His as analytes.

[10] = biological target: T9, mEphA3 (mouse, UniProt P29319); assay: ELISA, receptor coated on the plate, purified IgG, anti-human kappa-HRP
T9 construct: part of an Fc fusion; also called rmuEphA3-Fc
T9 sequence (receptor-Fc fusion, looked up): T5 sequence (receptor-Fc fusion, looked up)
Experimental: as §1

[11] = biological target: T10, mEphA4 (mouse, UniProt Q03137); assay: as above
T10 construct: part of an Fc fusion; also called rmuEphA4-Fc
Experimental: as §1

[12] = biological target: T11, mEphA7 (mouse, UniProt Q61772); assay: as above
T11 construct: part of an Fc fusion; also called rmuEphA7-Fc
T11 sequence (receptor-Fc fusion, looked up): T7 sequence (receptor-Fc fusion, looked up)
Experimental: as §1

[13] = biological target: T12, Human EphA4-Fc fusion protein (human, UniProt P54764 20-547); assay: BIAcore, IgG immobilized on the sensor chip, EphA4-Fc as analyte; koff and KD printed as ***, comment: off-rate below LOD
T12 construct: not shown: Fc portion of a human IgG1
Experimental: as §2

[14] = biological target: T13, mEph A3 (mouse, UniProt P29319); assay: ELISA
T13 sequence (receptor, looked up): T5 sequence (receptor-Fc fusion, looked up)

[15] = biological target: mEph A4 (mouse, UniProt Q03137); assay: ELISA
[16] = biological target: T14, mEph A7 (mouse, UniProt Q61772); assay: ELISA
T14 sequence (receptor, looked up): T7 sequence (receptor-Fc fusion, looked up)

[17] = biological target: T15, human EphA4 (construct not given) (human, UniProt P54764 20-547, limits assumed); assay: ELISA
T15 construct: also called EphA4 receptor
T15 sequence (P54764 20-547 limits assumed): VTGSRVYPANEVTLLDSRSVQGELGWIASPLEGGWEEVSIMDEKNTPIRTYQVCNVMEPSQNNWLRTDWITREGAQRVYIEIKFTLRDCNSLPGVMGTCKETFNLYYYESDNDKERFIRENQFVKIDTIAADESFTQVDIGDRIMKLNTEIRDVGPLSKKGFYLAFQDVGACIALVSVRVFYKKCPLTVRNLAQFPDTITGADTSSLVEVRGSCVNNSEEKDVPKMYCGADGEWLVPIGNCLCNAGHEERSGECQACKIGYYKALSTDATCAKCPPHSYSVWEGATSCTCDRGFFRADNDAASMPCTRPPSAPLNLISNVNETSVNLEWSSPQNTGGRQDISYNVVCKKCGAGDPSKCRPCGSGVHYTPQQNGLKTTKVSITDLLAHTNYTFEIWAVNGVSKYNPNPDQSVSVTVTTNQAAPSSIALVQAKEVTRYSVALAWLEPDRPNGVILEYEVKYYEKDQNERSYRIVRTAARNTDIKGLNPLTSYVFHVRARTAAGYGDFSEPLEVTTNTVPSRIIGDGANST

T8 sequence (P54764 20-547): as the sequence (P54764 20-547 limits assumed) above
T12 sequence (P54764 20-547): as the sequence (P54764 20-547 limits assumed) above
T10 sequence (Q03137 20-547 limits assumed): as the sequence (P54764 20-547 limits assumed) above, with P59A, N121S, V124G, R250Q, S251N, T270S, K378R, N406S counted along it
T6 sequence (Q03137 20-547 limits assumed): as the sequence (P54764 20-547 limits assumed) above, with P59A, N121S, V124G, R250Q, S251N, T270S, K378R, N406S counted along it
Sequence of mEph A2 (Q03145 26-535 limits assumed): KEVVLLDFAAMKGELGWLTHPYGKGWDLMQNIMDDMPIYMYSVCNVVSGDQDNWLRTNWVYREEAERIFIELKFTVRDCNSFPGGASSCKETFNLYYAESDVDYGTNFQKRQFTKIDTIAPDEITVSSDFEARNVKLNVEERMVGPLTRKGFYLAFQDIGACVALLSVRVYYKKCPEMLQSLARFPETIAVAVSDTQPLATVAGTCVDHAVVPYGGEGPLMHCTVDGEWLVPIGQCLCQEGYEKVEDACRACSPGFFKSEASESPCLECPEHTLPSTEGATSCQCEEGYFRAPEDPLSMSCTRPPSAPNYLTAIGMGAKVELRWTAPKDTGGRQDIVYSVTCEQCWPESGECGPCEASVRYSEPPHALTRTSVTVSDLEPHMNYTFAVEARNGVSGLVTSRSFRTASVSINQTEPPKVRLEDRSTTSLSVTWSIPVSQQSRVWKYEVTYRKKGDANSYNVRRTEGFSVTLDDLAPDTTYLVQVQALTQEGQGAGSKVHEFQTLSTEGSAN
Sequence of mEph A4 (Q03137 20-547 limits assumed): as the sequence (P54764 20-547 limits assumed) above, with P59A, N121S, V124G, R250Q, S251N, T270S, K378R, N406S counted along it
T1 sequence (P29317 25-534 limits assumed): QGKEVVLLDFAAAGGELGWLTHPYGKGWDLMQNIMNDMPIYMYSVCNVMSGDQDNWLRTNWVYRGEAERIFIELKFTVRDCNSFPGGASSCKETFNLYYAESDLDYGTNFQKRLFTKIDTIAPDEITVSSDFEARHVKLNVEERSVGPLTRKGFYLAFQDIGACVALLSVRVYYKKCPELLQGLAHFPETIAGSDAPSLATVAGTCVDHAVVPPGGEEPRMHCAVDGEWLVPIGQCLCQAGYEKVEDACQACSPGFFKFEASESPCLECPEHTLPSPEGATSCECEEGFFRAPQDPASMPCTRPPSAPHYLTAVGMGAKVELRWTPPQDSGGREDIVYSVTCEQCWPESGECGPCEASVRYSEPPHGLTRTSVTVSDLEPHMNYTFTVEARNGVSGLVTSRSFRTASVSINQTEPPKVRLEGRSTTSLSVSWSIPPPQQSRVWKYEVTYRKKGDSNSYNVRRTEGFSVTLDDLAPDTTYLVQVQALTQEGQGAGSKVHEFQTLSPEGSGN

B1: human Anti-Eph Monoclonal Antibody GEA44 (antibody, V domains shown)
VH: QVQLLQSGAEVKKPGASVKVPCKASGYTFTSYAMSWVRQAPGQGLEWMGWINTNTGNPTYAQGFTGRFVFSLDTSVSTAYLQISSLKAEDTAVYYCARVRTTVYGDGMDVWGQGTLVTVSS
VL: EIVLTQSPATLSVSPGERATLSCRASQSVSSNLAWYQQKPGQAPRLLIYGASTRATGIPDRFSASGSGTDFTLTISRVEPEDFAVYYCQQYGSSWTFGQGTKVEIK
notes: also called mAb GEA44; parental mAb GEA44
With B1 the “ELISA O.D. value” [1] was 0.783, the “ELISA O.D. value” [2] was 0.792 and the binding result [3] was “binds”. The “ELISA O.D. value” [4] was 0.535 and the binding result [5] was “binds”.

B2: 6B7 IgG1 (affinity optimized combinatorial variant of mAb GEA44 in human IgG1 format) (antibody, V domains shown)
VH: B1 VH with Y32R, T101F
VL: B1 VL with L33P, S93P
B2: binds [6]; binds [7]; binds [8]. It also gave a Kd [9] of 1.2 nM, a koff [9] of 0.000353 s⁻¹ and a kon [9] of 295000 M⁻¹ s⁻¹. B2: binds [10]; binds [11]; binds [12]. The kon [13] was 793000 M⁻¹ s⁻¹.

B3: 3C6 IgG1 (affinity optimized combinatorial variant of mAb GEA44 in human IgG1 format) (antibody, V domains shown)
VH: B1 VH with Y32R, T101L
VL: B1 VL with L33P, A34P
B3: binds [7]; binds [8]; binds [11]. The binding result [12] was “binds” and the kon [13] was 464000 M⁻¹ s⁻¹.

B4: GEA10-C12 (antibody, V domains shown)
VH: QVQLQESGPGLVKPSGTLSLTCAVSGGSISSSNWWSWVRQPPGKGLEWIGEIYHSGSTNYNPSLKSRVTISVDKSKNQFSLKLSSVTAADTAVYYCARGGIAAAGYWGLGYNWFDPWGQGTLVTVSS
VL: QSVLTQPPSVSGAPGQRVTISCTGSSSNIGAGYDVHWYQQLPGTAPKLLIYGNSNRPSGVPDRFSGSKSGTSASLAITGLQAEDEADYYCQSYDNSLSGSVVFGGGTKLTVL
B4 was tested, and the “ELISA O.D. value” [14] was 0.116, the “ELISA O.D. value” [15] was 0.253 and the “ELISA O.D. value” [16] was 0.132. For the same binder, the “ELISA O.D. value” [17] was 0.267, the “ELISA O.D. value” [3] was 0.823 and the “ELISA O.D. value” [4] was 0.264. For the same binder, the “ELISA O.D. value” [5] was 0.377.
